Results: the domain aggregation screens of Martell et al. (2025)

Test: soluble fraction after stress (log2 fold change); higher = more stays soluble; pooled small domains, quantitative proteomics
Settings: stress: pH 4
In short: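 Aggregation propensity here comes from the fold change in the soluble amount of each small protein domain after acid stress, measured in pooled custom libraries by high-throughput quantitative proteomics. The acid stress was pH 4. On the log2 scale, higher values mean more of the domain stayed soluble.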

Sequence | soluble fraction (log2)
HMKQESSEDLLNEVIDKVIDSNPDEKNRLLDGELKLVSFFMGQVMKETKGKANPGVINGLIKKKFNI | -0.748
HMSVFTDIYHQADHETKLMLIHEIKIVGDEKEFRLLKSIIDSTSNDLSKEANDALNAIKIRLALSK | -1.25
HMEKPAQDVLASHREWMGEMIKAEHMTAKQVWRLLRERADIGVSYPTVKRYLRAHFQFGGPS | 0.00611
HMDEMEFQKYVDQNLKQKGISLTAEAKAELLLRLGGDTMLLHSAIEKLDLYGEKNLNLNDIKHLVSLNSDV | 0.0232
HMRTMFGQRLRLARKRAGLSMQALADRVTPSVSAQAISKYEADQMMPSSSVLVGLGKALGVSLDFLVGGQ | -0.238
HMVNTYILNNKEYPIEIIRKNNKNTYLRVKEGKIIVTTNYLTSSFTINKLIKDNTSFINKALLKEN | -0.0629
HMPLEKGVVILDVTPSSAKVAVDGTSVETTYPLRLSAGLHQLSAEADGYDSITEYFKVETEKTTVTLDLSK | 0.234
HMVQIVINKEVQTTSQTILRENAGTSSRNIGYVDPNVKLRATLDRNSFYFIPEKKGWIMKSRVKLIEDLS | 0.0552
HMGGPEPIPAQIREGDTVYVTKFKQLGLVLKISEDTAEVQIGPLRATVAKTELSKVDATATEHR | -0.0107
HMTVGEKIQYYRKKIGLSQEELGQKMLLSRQTISLWEMDKTLPTVDNLLRLKEIFSVSIDELLSENEPK | -0.257
HMPVNGEFIERIKVMVLENKAKGKKERLTKTRMHQLLQEEGYKGSYSAFTHQVRIIEEELGVNQKEAH | 0.235
HMGKNISEEDMLGYFKKIDLDYDAETKEVIAPTFRHDLFRLADLAEEVARFFGYDNIPTTLPSGEAT | -0.488
HMGGGFLVPSLVGKSLEEARSLSELRGFKLEVGDYVISSEYPAGRVTRQNPANGAKGQEGDVIKVEVSS | 0.153
HMGGLAHPASGEEMEHLFAHLEGELLKSGFLFPPDKAAGMMRNIRAMLTRADFTDQEVRTLRGMIVALSRG | -0.794
HMQTMTAGERREAILRELEQAQGPVSASALAKRFHVSRQAVVGDVAMLRALNSPIAATPRGYVLTR | 0.0633
HMTISPYTKDDFLKGTKPFEDVYAHKADPFVHDRALEQMTIWAKSVGVNGFKKLYKAYIDSLRIKNKEI | 0.00637
HMTRAETPMAFIRAMVEAYTERGLDPNQALRKAQITPSQLKSTNARVTTLQMEWMSETAMREL | -0.464
HMNPSRPASKEELLGLFEHLERALDAVTFFRPAEKKPVVVQTLRAMLTKASFTEQDIRTMRGVIAALEN | -0.986
HMSHRVGDVVELTAVRMNDQGVFLDAGTGNTSDDILLHKHQMTSPVSVGDKVKVQLYLDAKNRITASMKL | -0.199
HMFVEKDSIINKGNNSYNFVITDNNNKVLVEYNGLLPDLFKEEQGVVIEGRLKSDFIIHAFTVF | -0.462
HMPGVTTQLHRLNGTEETYIIKRGDGVLEIDGEKSELQLGDAIIIPAGASQKISNIGDEDLE | -0.229
HMDSVPEEQLRQLALDKAKEVKRWGQPVELAKMNAHDRRIIHINLQDDPEIETRSEGEGALKSVIISLKK | 0.135
HMTVTLTTLRNGSTGAQVKTLQRLLSAMDYYNGETDGKFGISTAAAVKAFQRAKRLTVDGIVGKNTWTALL | -0.0337
HMRMTPRQALDDLIREREETYAAVSRLLGRNTAYIQQYIKRGTPARLDQSDIAQLALHFDVPAKLLGGKE | ≥ 0.43
HMTLNTQLFTWKKGVRVGEDDQGNIYYRTKDDKRRWVIFTGETEATKVSPDWHGWLHRTWATPPNK | -0.14
HMKKVIEFKDVSFAFEKKPILQDFNLLVQNKDRIGIVGDNGVGKSTLLNLIAERLQPQSGQVII | 0.0777

Sequence | soluble fraction (log2)
HMGIFAQTTKWRDIYTVKKKDTIFGIANKYGLSLPELMEANPEMKQEGYMLQKGTTLFIPFASD | -0.0354
HMVDPRWETPDENLAEQIKSVMPVMWVYDREAKSFVERPAIDFSFSIFERTTLYIYDKDGNEIGFAR | 0.0599
HMEKAISSLTLEEAKKRLEMVRSEKDASLQIYKETGSETARVTAENYGKEENSLLLHISEMSNIV | -0.209
HMGSLKISNPVKDTLWIQGVDGLKSIEIYSSTGQLVKTILGNQGDVSSLPKGVYFLKINTPSESLTAKIIK | ≥ 0.43
HMRILGIDPGYAITGYSIIDYVGNKFKLIDSGAVLTKAGVSFPLRLTKIYDDLSMIIDEYKPDA | -0.42
HMEIITIVSDINGKRIDAWLSEKLENYSRSFIQKLIQNENVKVNNNIVKANYKLKNGDAVAVSIPEPV | -0.261
HMSNFGERLRALRQDRQMTLQQASKVTGVAQSTLSKMENNQLSPTFNLMQKLAIGLGIDMPQLFAPVK | -0.18
HMEDHMVVFGKGGRITRLPDKATVLEYLDAANFFASRSSVVKVNGKLASLDQTLRDGDSIEIVD | -0.473
HMDSILMPGVVNKELREALAILKNEGIGWADPEYASSTVTRNYVISTDPVEGIELAPGQKVRLVVSLGPKP | 0.153
HMDIAATTVKQKIRTLLADEDAARPLSDQKIADALAEDGIDVARRTVAKYREELGIEPSWARKR | 0.0608
HMEQPLSLKLANNAFSRFWGNANPAEKDTQPNNSDIAKWVIEQSGGKITQTMADKIAQIIRPEWAA | 0.25
HMQISYDVPNLIGKSYEEVMTDPSILGEHFTVVLGETKTDEDTDAGVILHQDPAADSKVQDEVTPITVTVS | 0.0589
HMGSGKGAAHTILGISADASDDEIKAAWRKLVQENHPDKLVSQGLPDEFVQAATDRLRLINTAYQSMLNRP | -0.328
HMSSLDTLTARETQILAEMAQGKNNAAIAAAVSVSERAVEKHTNSIFAKLGLSEEKDVNRRVMAVLLFLGR | -1.5
HMREEIESVYKTLAVTEIPYIARGNSARLGSGIQTVYDFYRMEGMQVSKILGRNGSVLWLELHG | -0.159
HMAAAQILRAAVLRVPAEETMRFVTETPELRRYLGASLGPTAAIVRPGQEQNLAAALQSHGILVEFDE | 0.106
HMENLFPDYTMQDYRIVRSELSSKFKVQTVPVTTATATENKIVRQEPEAGSRITEGMTVILYYSIGPE | 0.0963
HMKITLAESVYERIRRDIITNQLKPGEKINIRELSTRYEASETPIRLALNRLASENIIEHFPRQGMRVK | -0.0624
HMWSAREQVVNSLREAILTSELKAGERLVLSDLSARLGVSVTPIREALQSLEREGLVQLMPHQEAVVV | -0.409
HMGEIHALIPGLVSRLFVKPGDRVENGQGLLILEAMKMENEIDSPISGVVGKIYIKAGDKVEKGELIMEIN | 0.115
HMLDYKSALQELLQAQRRSRPRYEVISTEGPDHERVFEVAVWLDNEELGRGKGRSKREAEHQAAQAALTQL | -0.626
HMVIDFYDPQTKVIHEIKKSSAKEEAHVWQVKYYIYLFEKEEIMGVKGVLEYPLLREIVSVNF | -0.0844
HMDDVIDVYATYDVSPTNQISNIKLYSDAAHANPVTGEAGKSYNDITEGHPGYQFRWSGTTWVPI | 0.0332
HMNLGETIYNLRKEKKLSQGDLAEQLSVSRQSVSKWENNSAVPDLDKLVKLSTIFGVSLDELVKG | 0.409
HMLRVGASVTANGKYWYDSYGSKPFGTANNLSTTVTRIVPGNPYPIHIGSYGWLQESQIQIT | 0.204
HMHKYQVGETVYYTSPTFGRAAATGSYIVVKLLPSEGDDYQYRIKSSGEAFERVAKESQLDR | 0.11

Sequence | soluble fraction (log2)
HMRGFTDFEHIEKEYLATIEKLNWPDGVTLPDKLEGEDTGTSFQVGYGDTRASNLWEYSWMK | -1.15
HMGGEPKALLFAGVETREMAEITQRLEAADIPYEIREDGGSIYVARSEVFNARMMLSADGLPS | 0.233
HMNEKTGTLTVYSSPGWAKVYIDGEYKGITPVMANLTYGDHYVKLTLDGYDSIGNHIDVNSPDQSYTGKF | 0.0783
HMNALNDLESKIFEEVVKAPEIIMNMTIREFASTVHASPTTIVRMTHKLGFSGWNELKTYLQKQKHQIS | -0.0849
HMKKYIEIYNYYKQLIESEQLKSGDKMPSVRKATKIFNVSKTTVQNAYFDLQADGYIIAAPKSGYYVTEM | -0.7
HMNVSDIENKLNEMLSPLEKKVMVLYLEGKSYVEIGELLGRHTKSVDNALQRVKRKLEIYLKNRK | 0.295
HMGTHSAEQVRAAIRAIVAAEDAANPLSDARITELLAMRGIAAARRTVMKYREQLGIPSSAKRRR | ≥ 0.43
HMAPDYYALLGVPRNATTAEVRKAFRGKALEQHPDRGGDEESFRLLSKAYDVLSDSERRKYYDRTG | 0.14
HMSKEIQNILASLPSVDVLLKQIDPIYPHGKAKEATQQVVARLRESVVDGTRKTVIDQKEVIAMIHKQLEE | -0.149
HMAFIEADIGKRIKSLRNKKRITLESLAAETGFTKGYLSKVETSEKAPPVSTLGSIARALGVSISTLLGE | 0.144
HMKEEDLPREYTDILGNSVHERLNIMIHDIIEHSQDKPEVAMSPEREEAMHGLRRWMFDHVYH | -0.307
HMIMNDIQAKVLEIAETKDLGSITYYRLSKMLGVDHPYRVKYAIDKLIEKGLLTAKSDGSITKAI | 0.204
HMYLPGERMRIKITALGSNPKQGVGYLPDGMMVVVDEAATLVGRFVEIEFVKFLQTNSGRMMFAKVAT | -0.02
HMELEWENYSLAGEIKTTVMLYQNRRNGLPEEAKQKADALMKQLKQAVIENDAQKVEKIDDALTALLFE | -0.249
HMRAVPTKLAPFVEVLKAMLEADGHRPKAQRRTAKALHLELISRGYAGGYTRLTDYIRDWRQQQG | -0.411
HMTGSETLQDIFAHLEAGTVRTALSLIPRLDAVEYEQNRQRIAELAGVRPSALDDLRKQAKREEN | -0.434
HMSTMTEQEAFGLWERINDFIARTGNEPNRNSNDAHEVRMAEALNFIRIKVAEQRNSQSNSEAQNN | -1.39
HMHIDQVIRERRLALGLTQEELANKIGVSAPAVSKWEKRVSYPDITLLPALARILGTDVNTLLTFS | -0.309
HMFKNWMPFDEARIFVRKLKFNSHDEFRKYLKANEINIPSKPWSTYKGKGWVSIGDFLGTHR | -0.308
HMKRMSKKQLSAVIEKYFSSQPGVTLTLKDIFRNLHLDTHPLKMIALDILEEMSWDDVIMKVSDTSYALNT | 2.81e-05
HMSDFDPTLILDLIKGSGEALTKREIARALGIKGGDKRIELKSHLKSMEAEGVIVKQAGGAYSVP | -0.00302
HMEALSAREIEILQALETGASNRELAKMLFISEATVKTHLVHIYQKLGVGTRTAAITEARERRV | -0.237
HMENFIPDDPKRIEIGMSVLHQRFGKGKVMQLEGNLPDMKATVNFEGEGQKQLLLKYARLKIV | -0.0241
HMKMHKIIKERRLALNFTQEQVAKYLGVTTPAVNKWEKGISYPDISLLPALARLLDTDLNTLLSF | -1.26
